Data taken from paper PMC4735815, “Protein unfolding as a switch from self-recognition to high-affinity client binding” (Nature Communications, 2016).

Target: the molecule itself
Assay: cross-linking; in vitro UV crosslinking of purified Hsp33^M172S-BPA variants alone; dimers at ∼70 kDa

B1: Hsp33^M172SL202BPA (natural protein)
chain: MIMPQHDQLHRYLFENFAVRGELVTVSETLQQILENHDYPQPVKNVLAELLVATSLLTATLKFDGDITVQLQGDGPMNLAVINGNNNQQMRGVARVQGEIPENADLKTLVGNGYVVITITPSEGERYQGVVGLEGDTLAACLEDYFMRSEQLPTRLFIRTGDVDGKPAAGGSLLQVMPAQNAQQDDFDHLATLTETIKTEEFLTLPANEVLWRLYHEEEVTVYDPQDVEFKCTCSRERCADALKTLPDEEVDSILAEDGEIDMHCDYCGNHYLFNAMDIAEIRNNASPADPQVH
modifications: p-benzoyl-L-phenylalanine (BPA) at position 202
stoichiometry N: 2
